Here are results for five substances from PMC5300068.

What all share (test): AUC; sedimentation velocity, 50,000 rpm, absorbance optics, c(s) analysis; physiological ionic strength, buffers with Ca2+ or EDTA; 0.8-2.2 uM for full-length MASPs; dimer to monomers
For assay [1], the target named is activated full-length rat MASP-1 (rat).
For assay [2], the target named is activated full-length rat MASP-2 (rat).
For assay [3], the target named is full-length rat MASP-1 zymogen (rat) (UniProt Q8CHN8).
Assay [4] deals with full-length rat MASP-2 zymogen (rat) (UniProt Q9JJS8).
The target of assay [5] is rat MASP-1 CUB1-EGF-CUB2 (MASP-1 3D) (rat) (UniProt Q8CHN8).

pKd: −log10 of the molar value. A value given as a limit tells only on which side of the number the result lay.

In general, pKd refers to the negative decadic logarithm of the Kd, by convention in mol/L. The term stoichiometry N denotes the number of molecules, sites or subunits per partner or assembly. In assay [1], “activated full-length rat MASP-1 (enzyme)” had a pKd greater than 8.00 and a stoichiometry N of 2.

In assay [2], “activated full-length rat MASP-2 (enzyme)” had a negative logarithm of the Kd (pKd) greater than 8.00 and a stoichiometry N of 2.

In assay [3], “full-length rat MASP-1 zymogen (from UniProt Q8CHN8 25-704) (enzyme)” gave a negative-log Kd (pKd) greater than 8.00 and a stoichiometry N of 2.

In assay [4], “full-length rat MASP-2 zymogen (from UniProt Q9JJS8 20-685) (enzyme)” had a pKd greater than 8.00 and a stoichiometry N of 2.

For the substance “rat MASP-1 CUB1-EGF-CUB2 (MASP-1 3D) (from UniProt Q8CHN8 61-301) (domain or fragment)”, the stoichiometry N in assay [5] was determined as 2.
